± gives the uncertainty stated by the source.

Sequences and labels used below:
B1: Cold shock protein CspB, residues 1 to 66; numbered along this chain, P41016 (parent)
chain: MQRGKVKWFNNEKGYGFIEVEGGSDVFVHFTAIQGEGFKTLEEGQEVSFEIVQGNRGPQAANVVKL

In the data set the parent is B1. Briefly: abundance fitness (aPCA) (normalised: wild type 0, dead -1); higher = more abundant; growth selection in yeast, the domain comes from the species named. The note with it: Bacillus caldolyticus.
As to A32M, the abundance fitness was -0.103 ± 0.048.

As for A32S, the abundance fitness is -0.032 ± 0.034.

For A32Q, the abundance fitness worked out at 0.023 ± 0.055.

For the variant A32D, the abundance fitness was -0.129 ± 0.055.

Take A32W: the abundance fitness was -0.351 ± 0.05.

Consider A32T, for which the abundance fitness was -0.105 ± 0.039.

In the case of A32I, the abundance fitness is -0.666 ± 0.068.

A32R: the abundance fitness is -0.084 ± 0.036.

On to A32P, for which the abundance fitness was -0.507 ± 0.043.

For A32Y, the abundance fitness was -0.263 ± 0.063.

Consider A32N, for which the abundance fitness was -0.045 ± 0.058.

With A32H, the abundance fitness is -0.099 ± 0.061.

In the case of A32K, the abundance fitness was -0.044 ± 0.049.

In the case of A32C, the abundance fitness was -0.083 ± 0.048.

In the case of A32G, the abundance fitness was -0.02 ± 0.037.

For the variant A32F, the abundance fitness was -0.129 ± 0.058.

Regarding A32L, the abundance fitness is -0.472 ± 0.025.

G44H: the abundance fitness was determined as 0.014 ± 0.083.

As to G44Y, the abundance fitness is -0.066 ± 0.066.

Regarding G44N, the abundance fitness was -0.086 ± 0.1.

Regarding G44S, the abundance fitness was -0.029 ± 0.042.

For G44D, the abundance fitness turned out to be 0.019 ± 0.099.

Take G44V: the abundance fitness is -0.344 ± 0.031.

On to G44M, for which the abundance fitness is -0.043 ± 0.047.

In the case of G44C, the abundance fitness was determined as 0.005 ± 0.052.

For G44W, the abundance fitness was -0.111 ± 0.033.

For G44F, the abundance fitness is -0.126 ± 0.059.

For the variant G44E, the abundance fitness was -0.05 ± 0.054.

Turning to G44L, the abundance fitness is -0.076 ± 0.031.

For the variant G44P, the abundance fitness was -0.311 ± 0.051.

Regarding G44T, the abundance fitness was -0.093 ± 0.052.

Take G44A: the abundance fitness was -0.049 ± 0.037.

As for G44R, the abundance fitness was -0.013 ± 0.034.

For the variant G44K, the abundance fitness is -0.041 ± 0.055.

Regarding G44I, the abundance fitness was -0.567 ± 0.077.

Consider E36L, for which the abundance fitness is -0.024 ± 0.031.

Regarding E36V, the abundance fitness was -0.003 ± 0.033.

As for E36R, the abundance fitness is 0.006 ± 0.039.

As for E36F, the abundance fitness is -0.023 ± 0.047.

On to E36C, for which the abundance fitness is -0.042 ± 0.058.

For E36Q, the abundance fitness was 0.021 ± 0.079.

As to E36H, the abundance fitness is -0.047 ± 0.085.

Regarding E36N, the abundance fitness was -0.037 ± 0.11.

As to E36T, the abundance fitness was -0.006 ± 0.044.

For the variant E36S, the abundance fitness is -0.007 ± 0.036.

Consider E36P, for which the abundance fitness is -0.017 ± 0.043.

Turning to E36G, the abundance fitness was -0.004 ± 0.034.

In the case of E36M, the abundance fitness was -0.085 ± 0.046.

For the variant E36W, the abundance fitness was -0.017 ± 0.043.

With E36D, the abundance fitness was -0.019 ± 0.063.

For the variant E43N, the abundance fitness is 0.01 ± 0.076.

Consider E43M, for which the abundance fitness amounted to 0.022 ± 0.056.

Consider E43K, for which the abundance fitness was determined as 0.059 ± 0.069.

In the case of E43P, the abundance fitness is 0.004 ± 0.045.

Take E43A: the abundance fitness turned out to be 0.023 ± 0.047.

Regarding E43W, the abundance fitness is -0.045 ± 0.034.

For E43G, the abundance fitness worked out at 0.04 ± 0.04.

With E43S, the abundance fitness is -0.014 ± 0.038.

Regarding E43Y, the abundance fitness is -0.017 ± 0.078.

In the case of E43L, the abundance fitness is -0.012 ± 0.034.

As to E43Q, the abundance fitness was 0.025 ± 0.058.

As to E43T, the abundance fitness was 0.025 ± 0.052.

On to E43R, for which the abundance fitness is 0.032 ± 0.039.

E43H: the abundance fitness worked out at 0.03 ± 0.087.

For the variant E43V, the abundance fitness was -0.033 ± 0.05.

As for E43C, the abundance fitness amounted to 0.032 ± 0.092.

With E43I, the abundance fitness was -0.031 ± 0.065.

On to F30T, for which the abundance fitness was -0.127 ± 0.05.

Regarding F30S, the abundance fitness is -0.047 ± 0.036.

With F30G, the abundance fitness is -0.089 ± 0.04.

Turning to F30D, the abundance fitness was -0.188 ± 0.068.

As for F30H, the abundance fitness is -0.023 ± 0.067.

Regarding F30I, the abundance fitness was -0.087 ± 0.068.

F30P: the abundance fitness was -0.227 ± 0.05.

As for F30Q, the abundance fitness was -0.025 ± 0.074.

Turning to F30K, the abundance fitness was -0.016 ± 0.057.

As for F30V, the abundance fitness is -0.049 ± 0.047.

On to F30Y, for which the abundance fitness came out at 0.011 ± 0.041.

With F30C, the abundance fitness was -0.091 ± 0.052.

Consider F30A, for which the abundance fitness is -0.035 ± 0.047.

F30W: the abundance fitness is -0.026 ± 0.051.

For F30N, the abundance fitness is -0.07 ± 0.077.

As to F30L, the abundance fitness is -0.103 ± 0.027.

Consider F30M, for which the abundance fitness is -0.169 ± 0.047.

As to E42G, the abundance fitness was -0.001 ± 0.036.

As for E42Q, the abundance fitness worked out at 0.043 ± 0.066.

In the case of E42M, the abundance fitness is -0.006 ± 0.048.

Take E42N: the abundance fitness was -0.02 ± 0.065.

In the case of E42D, the abundance fitness amounted to 0.004 ± 0.072.

Take E42V: the abundance fitness is -0.008 ± 0.028.

Consider E42K, for which the abundance fitness is 0.017 ± 0.06.

As for E42C, the abundance fitness is -0.013 ± 0.064.

E42L: the abundance fitness is -0.006 ± 0.031.

On to E42Y, for which the abundance fitness is -0.036 ± 0.059.

As to E42I, the abundance fitness was -0.051 ± 0.055.

With E42A, the abundance fitness was found to be 0.018 ± 0.041.

Consider E42T, for which the abundance fitness is -0.011 ± 0.052.

On to E42H, for which the abundance fitness was 0.008 ± 0.11.

As to E42P, the abundance fitness is -0.043 ± 0.042.

E42F: the abundance fitness is -0.048 ± 0.049.

As for F27C, the abundance fitness is -0.243 ± 0.047.

For F27Y, the abundance fitness was found to be 0.003 ± 0.054.

For the variant F27N, the abundance fitness is -0.335 ± 0.1.

Regarding F27A, the abundance fitness was -0.206 ± 0.037.

Take F27E: the abundance fitness is -0.183 ± 0.041.

As for F27S, the abundance fitness was -0.212 ± 0.03.

On to F27Q, for which the abundance fitness was -0.208 ± 0.04.

With F27G, the abundance fitness was -0.229 ± 0.031.

With F27L, the abundance fitness was -0.187 ± 0.029.

As for F27R, the abundance fitness is -0.176 ± 0.028.

On to F27I, for which the abundance fitness is -0.208 ± 0.056.

F27H: the abundance fitness was -0.075 ± 0.077.

On to F27M, for which the abundance fitness is -0.169 ± 0.049.

For the variant F27W, the abundance fitness is -0.102 ± 0.035.

Regarding F27P, the abundance fitness was -0.161 ± 0.042.

Turning to G37D, the abundance fitness was -0.133 ± 0.074.

Turning to G37T, the abundance fitness was -0.069 ± 0.041.

As to G37F, the abundance fitness is -0.153 ± 0.055.

Consider G37P, for which the abundance fitness is -0.119 ± 0.048.

G37C: the abundance fitness was -0.049 ± 0.048.

As for G37L, the abundance fitness was -0.126 ± 0.029.

Regarding G37E, the abundance fitness was -0.05 ± 0.043.

Take G37H: the abundance fitness was -0.036 ± 0.048.

G37Q: the abundance fitness is -0.078 ± 0.056.

With G37V, the abundance fitness is -0.086 ± 0.033.

For G37W, the abundance fitness was -0.141 ± 0.041.

Regarding G37M, the abundance fitness is -0.117 ± 0.034.

For G37Y, the abundance fitness is -0.074 ± 0.059.

For the variant G37R, the abundance fitness is -0.083 ± 0.034.

As for G37S, the abundance fitness was -0.072 ± 0.034.

Turning to G37A, the abundance fitness was -0.082 ± 0.035.

Consider G37I, for which the abundance fitness was -0.18 ± 0.054.

Consider T31M, for which the abundance fitness is -0.13 ± 0.044.

In the case of T31Q, the abundance fitness is -0.132 ± 0.061.

Turning to T31C, the abundance fitness is -0.146 ± 0.05.

Regarding T31G, the abundance fitness is -0.079 ± 0.044.

T31R: the abundance fitness is -0.044 ± 0.028.

Turning to T31F, the abundance fitness is -0.431 ± 0.052.

Regarding T31W, the abundance fitness is -0.289 ± 0.035.

For the variant T31D, the abundance fitness was -0.141 ± 0.11.

With T31Y, the abundance fitness was -0.3 ± 0.055.

T31N: the abundance fitness was -0.127 ± 0.066.

In the case of T31A, the abundance fitness was -0.134 ± 0.049.

In the case of T31S, the abundance fitness is -0.011 ± 0.032.

On to T31E, for which the abundance fitness is -0.087 ± 0.068.

As to T31I, the abundance fitness was -0.314 ± 0.053.

T31V: the abundance fitness is -0.345 ± 0.043.

Consider T31K, for which the abundance fitness is -0.066 ± 0.054.

In the case of T31H, the abundance fitness was -0.074 ± 0.077.

For the variant T40W, the abundance fitness was -0.076 ± 0.051.

For the variant T40S, the abundance fitness was -0.023 ± 0.034.

For T40N, the abundance fitness was -0.078 ± 0.048.

Consider T40A, for which the abundance fitness was -0.022 ± 0.038.

Take T40V: the abundance fitness was -0.043 ± 0.041.

On to T40M, for which the abundance fitness was -0.04 ± 0.04.

T40F: the abundance fitness was -0.009 ± 0.055.

For T40Y, the abundance fitness was -0.037 ± 0.051.

Consider T40I, for which the abundance fitness was -0.032 ± 0.044.

With T40G, the abundance fitness is -0.048 ± 0.042.

Regarding T40E, the abundance fitness was -0.027 ± 0.061.

Regarding T40Q, the abundance fitness is -0.041 ± 0.041.

For T40L, the abundance fitness is -0.087 ± 0.026.

As for T40R, the abundance fitness was -0.043 ± 0.032.

On to T40D, for which the abundance fitness was -0.112 ± 0.052.

With T40C, the abundance fitness was -0.006 ± 0.062.

As to T40K, the abundance fitness is -0.065 ± 0.048.

For T40H, the abundance fitness was -0.064 ± 0.047.

For the origin of these results see the Human Domainome abundance scans (Beltran et al. 2025).
